The supplement of paper PMC7125110
± gives the standard error. Variants at the floor of the assay were thinned out.

B1: glmS ribozyme (parent)
chain: AUAAAAGCGCCAGAACUACAGAAAUGUAGUUGACGAGGAGGAGGUUUAUCGAAUUUUCGGCGGAUGCCUCCAAA

Variants of: B1
Assay: self-cleavage kobs at 10000 uM GlcN6P; higher = faster cleavage; RNA array
Conditions: with glucosamine-6-phosphate
Method in brief: (§1)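 kcat and KM were obtained from weighted Michaelis–Menten fits across concentrations of kobs values. Those came from one- or two-exponential decay fits to per-tile medians normalised to baseline and to non-cleaving reference variants. The variants were barcoded ribozymes transcribed in situ by E. coli RNA polymerase on sequenced MiSeq chips and tracked through a hybridised Cy3 probe at 37 °C, with 40 μM to 10 mM glucosamine-6-phosphate in HEPES/KCl/Mg(OAc)2 buffer flowed in.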
In the case of C8G A12C A33C, the “self-cleavage kobs at 10000 uM GlcN6P” value is reported as under 1e-05 s⁻¹. For C11A A48G C50A C70A, the “self-cleavage kobs at 10000 uM GlcN6P” value was 5.38e-05 ± 1.9e-05 s⁻¹. For A6G G29A G60C G63C, the “self-cleavage kobs at 10000 uM GlcN6P” value was under 1e-05 s⁻¹. For G32C U56A C71A, the “self-cleavage kobs at 10000 uM GlcN6P” value was 3.09e-05 ± 1.5e-05 s⁻¹. For U30C U54G C67G, the “self-cleavage kobs at 10000 uM GlcN6P” value was 2.88e-05 ± 1.3e-05 s⁻¹. With A36C U57A the “self-cleavage kobs at 10000 uM GlcN6P” value was under 1e-05 s⁻¹. In the case of U49C C50U U56C, the “self-cleavage kobs at 10000 uM GlcN6P” value is reported as under 1e-05 s⁻¹. For A6C A48U U54A C67U, the “self-cleavage kobs at 10000 uM GlcN6P” value was under 1e-05 s⁻¹. In the case of G9A G29A G40U G51A, the “self-cleavage kobs at 10000 uM GlcN6P” value is reported as under 1e-05 s⁻¹. With A12C A39U A48C the “self-cleavage kobs at 10000 uM GlcN6P” value was 4.14e-05 ± 1e-05 s⁻¹. For A14C U30G A33G G37A C68G, the “self-cleavage kobs at 10000 uM GlcN6P” value was under 1e-05 s⁻¹. In the case of C11A U69G C71G, the “self-cleavage kobs at 10000 uM GlcN6P” value is reported as 4.63e-05 ± 1.5e-05 s⁻¹. For C10A A36U A39U, the “self-cleavage kobs at 10000 uM GlcN6P” value was under 1e-05 s⁻¹. For G13U A42G C50U, the “self-cleavage kobs at 10000 uM GlcN6P” value was under 1e-05 s⁻¹. For C11U U31G U49A G62A, the “self-cleavage kobs at 10000 uM GlcN6P” value was under 1e-05 s⁻¹. For U55C U57A, the “self-cleavage kobs at 10000 uM GlcN6P” value was 0.00024 ± 4.6e-05 s⁻¹. A14C A39U U47C C70U was tested, and the “self-cleavage kobs at 10000 uM GlcN6P” value was 0.00047 ± 6.5e-05 s⁻¹. For U47A A53U C58A, the “self-cleavage kobs at 10000 uM GlcN6P” value was 0.000151 ± 3e-05 s⁻¹. For A36C U56C, the “self-cleavage kobs at 10000 uM GlcN6P” value was under 1e-05 s⁻¹. With U31A A36G U49G C50U C58A the “self-cleavage kobs at 10000 uM GlcN6P” value was under 1e-05 s⁻¹. In the case of G13U C34U G63U, the “self-cleavage kobs at 10000 uM GlcN6P” value is reported as under 1e-05 s⁻¹. For G9U A12G C16A, the “self-cleavage kobs at 10000 uM GlcN6P” value was under 1e-05 s⁻¹. U54A C58U was tested, and the “self-cleavage kobs at 10000 uM GlcN6P” value was 6.81e-05 ± 1e-05 s⁻¹. With G32C A36C G51C the “self-cleavage kobs at 10000 uM GlcN6P” value was under 1e-05 s⁻¹. A15U C16A A39U was tested, and the “self-cleavage kobs at 10000 uM GlcN6P” value was 0.000273 ± 6.1e-05 s⁻¹. G44A U46G U54G was tested, and the “self-cleavage kobs at 10000 uM GlcN6P” value was 0.000373 ± 0.0001 s⁻¹. For C11A U30A C70G, the “self-cleavage kobs at 10000 uM GlcN6P” value was 5.91e-05 ± 1.5e-05 s⁻¹. In the case of C8G C34U G43U G62U C71U, the “self-cleavage kobs at 10000 uM GlcN6P” value is reported as under 1e-05 s⁻¹. With C19A G43C U47G the “self-cleavage kobs at 10000 uM GlcN6P” value was under 1e-05 s⁻¹. A14G U47C U56G was tested, and the “self-cleavage kobs at 10000 uM GlcN6P” value was 0.0112 ± 0.0019 s⁻¹. G41A C61A C68G was tested, and the “self-cleavage kobs at 10000 uM GlcN6P” value was under 1e-05 s⁻¹. With A12C U31C G43U G44U the “self-cleavage kobs at 10000 uM GlcN6P” value was under 1e-05 s⁻¹. With A12G U46C the “self-cleavage kobs at 10000 uM GlcN6P” value was 0.000349 ± 5.9e-05 s⁻¹. A12C A42C G59C was tested, and the “self-cleavage kobs at 10000 uM GlcN6P” value was under 1e-05 s⁻¹. With G7C U49A C50U A53U U54C C68U the “self-cleavage kobs at 10000 uM GlcN6P” value was under 1e-05 s⁻¹. With G59C A64U C71G the “self-cleavage kobs at 10000 uM GlcN6P” value was under 1e-05 s⁻¹. A6C U31G G40C was tested, and the “self-cleavage kobs at 10000 uM GlcN6P” value was under 1e-05 s⁻¹. C50U C61U C67U was tested, and the “self-cleavage kobs at 10000 uM GlcN6P” value was under 1e-05 s⁻¹. A6G G59C G62A was tested, and the “self-cleavage kobs at 10000 uM GlcN6P” value was under 1e-05 s⁻¹. With C16A U31G C67U the “self-cleavage kobs at 10000 uM GlcN6P” value was 6.54e-05 ± 1.4e-05 s⁻¹. In the case of G9A A12U C70G, the “self-cleavage kobs at 10000 uM GlcN6P” value is reported as under 1e-05 s⁻¹. For A39U C67A C70U, the “self-cleavage kobs at 10000 uM GlcN6P” value was 0.00654 ± 0.0014 s⁻¹. In the case of A1C U2A A3U G7A C8G G9C C10G C16G, the “self-cleavage kobs at 10000 uM GlcN6P” value is reported as under 1e-05 s⁻¹. With G9A A15G G35A A42U C70U the “self-cleavage kobs at 10000 uM GlcN6P” value was under 1e-05 s⁻¹. For U54A G66A C68A, the “self-cleavage kobs at 10000 uM GlcN6P” value was 9.65e-05 ± 1.7e-05 s⁻¹. C11G G29A G41U C50G U56G C67U was tested, and the “self-cleavage kobs at 10000 uM GlcN6P” value was under 1e-05 s⁻¹. A33U G40C U56A G60C C71U was tested, and the “self-cleavage kobs at 10000 uM GlcN6P” value was under 1e-05 s⁻¹. With A15G C61G G62C the “self-cleavage kobs at 10000 uM GlcN6P” value was under 1e-05 s⁻¹. In the case of U54A U57G, the “self-cleavage kobs at 10000 uM GlcN6P” value is reported as 5.94e-05 ± 1.1e-05 s⁻¹. With U47A U65G G66U the “self-cleavage kobs at 10000 uM GlcN6P” value was 0.00262 ± 0.00053 s⁻¹. C8U G37C G43A C58A was tested, and the “self-cleavage kobs at 10000 uM GlcN6P” value was under 1e-05 s⁻¹. With C10U C50G A53U U54G U55C C68G the “self-cleavage kobs at 10000 uM GlcN6P” value was 6.48e-05 ± 2e-05 s⁻¹. A42G A48U U55G was tested, and the “self-cleavage kobs at 10000 uM GlcN6P” value was 0.000404 ± 8.1e-05 s⁻¹. With G35C A42U C71U the “self-cleavage kobs at 10000 uM GlcN6P” value was under 1e-05 s⁻¹. G13C A36G G51A U55A was tested, and the “self-cleavage kobs at 10000 uM GlcN6P” value was under 1e-05 s⁻¹. C16U G37A U65G was tested, and the “self-cleavage kobs at 10000 uM GlcN6P” value was 0.000183 ± 3.8e-05 s⁻¹. With C16G U46G C67U the “self-cleavage kobs at 10000 uM GlcN6P” value was 0.000334 ± 6.9e-05 s⁻¹. In the case of A14C G59C G62C, the “self-cleavage kobs at 10000 uM GlcN6P” value is reported as under 1e-05 s⁻¹. With A15C C16G G37C C58A G63C the “self-cleavage kobs at 10000 uM GlcN6P” value was under 1e-05 s⁻¹. With G32A G40A C68G the “self-cleavage kobs at 10000 uM GlcN6P” value was under 1e-05 s⁻¹. For G7A U57A C58A, the “self-cleavage kobs at 10000 uM GlcN6P” value was under 1e-05 s⁻¹. With U49G G60A C61G G62U the “self-cleavage kobs at 10000 uM GlcN6P” value was under 1e-05 s⁻¹. In the case of G38U C50G C67A C71G, the “self-cleavage kobs at 10000 uM GlcN6P” value is reported as 0.000322 ± 6.1e-05 s⁻¹. For C8A A14U A39C, the “self-cleavage kobs at 10000 uM GlcN6P” value was under 1e-05 s⁻¹. G32A A52G C70U was tested, and the “self-cleavage kobs at 10000 uM GlcN6P” value was 0.000145 ± 1.9e-05 s⁻¹. For U47A U54G U55A C70A, the “self-cleavage kobs at 10000 uM GlcN6P” value was 0.000105 ± 3e-05 s⁻¹. With U54C G66C the “self-cleavage kobs at 10000 uM GlcN6P” value was 0.00113 ± 0.00015 s⁻¹. For C16G G32C G43U U47G U56A, the “self-cleavage kobs at 10000 uM GlcN6P” value was under 1e-05 s⁻¹. G29U U54A C71U was tested, and the “self-cleavage kobs at 10000 uM GlcN6P” value was 0.00223 ± 0.00064 s⁻¹. In the case of U30G A39C U56A C70G, the “self-cleavage kobs at 10000 uM GlcN6P” value is reported as under 1e-05 s⁻¹. For C10G A14G, the “self-cleavage kobs at 10000 uM GlcN6P” value was 3.42e-05 ± 7.2e-06 s⁻¹. With G29C U45A U46A A52U the “self-cleavage kobs at 10000 uM GlcN6P” value was 3.37e-05 ± 1.4e-05 s⁻¹. In the case of G32U A53G U65A, the “self-cleavage kobs at 10000 uM GlcN6P” value is reported as 5.88e-05 ± 1.9e-05 s⁻¹. With A6G A12G G40U U47C the “self-cleavage kobs at 10000 uM GlcN6P” value was under 1e-05 s⁻¹. In the case of G29U A39C G40A G66A, the “self-cleavage kobs at 10000 uM GlcN6P” value is reported as 6.36e-05 ± 1.3e-05 s⁻¹. In the case of G38C A42G A64G, the “self-cleavage kobs at 10000 uM GlcN6P” value is reported as under 1e-05 s⁻¹. With A5U A39C U65G C68U the “self-cleavage kobs at 10000 uM GlcN6P” value was 4.87e-05 ± 1.6e-05 s⁻¹. In the case of A33U U45A U46G, the “self-cleavage kobs at 10000 uM GlcN6P” value is reported as 0.000433 ± 5.7e-05 s⁻¹. For U54A C67U C70A, the “self-cleavage kobs at 10000 uM GlcN6P” value was 4.02e-05 ± 1.6e-05 s⁻¹.

Variants of: B1
Assay: self-cleavage kobs at 2500 uM GlcN6P; higher = faster cleavage; RNA array
Conditions: with glucosamine-6-phosphate
Method in brief: as §1
With C11U A15G G37A G60A the “self-cleavage kobs at 2500 uM GlcN6P” value was under 1e-05 s⁻¹. G29A U65A C71A was tested, and the “self-cleavage kobs at 2500 uM GlcN6P” value was 4.59e-05 ± 1.7e-05 s⁻¹. With G40A U54G U69A the “self-cleavage kobs at 2500 uM GlcN6P” value was under 1e-05 s⁻¹. With C8G A12C A42U C68U the “self-cleavage kobs at 2500 uM GlcN6P” value was under 1e-05 s⁻¹. A15C G37A A39G was tested, and the “self-cleavage kobs at 2500 uM GlcN6P” value was 0.000365 ± 0.00012 s⁻¹.
